Key:
[1] = test system: gastric cancer cell MGC-803; assay: MTT assay, proliferation of gastric cancer cell MGC-803; format: cell-based
Procedure: (§1) The MTT assay was used to detect the inhibitory effect of the integrin blocker fusion protein obtained in Example 1 on the proliferation of various tumor cells, including melanoma cell B16F10, gastric cancer cell MGC-803, lung cancer cell A549, liver cancer cell Hep-G2, breast cancer cell MDA-MB-231, colon cancer cell HCT-116, human glioma U87, and cervical cancer cell Hela.
(§2) The tumor cells were cultured in a 5% CO2 incubator at 37° C. to a density of 90% or more, and collected by trypsinization. The cells were resuspended in the culture liquid and counted under a microscope. The cell concentration was adjusted to 3.0×10^4 cells/mL. The cell suspension was inoculated into a 96-well plate at 100 μL per well and cultured overnight in a 5% CO2 incubator at 37° C. […] After the cells were fully adhered, each dilution was added to a 96-well plate at 100 μL per well, respectively. […] 20 μL of 5 mg/mL MTT was added to each well of a 96-well plate, and incubation was continued for 4 hours. The medium was aspirated and 100 μL of DMSO per well were added to dissolve. The absorbance was measured at 570 nm with a microplate reader with a reference wavelength of 630 nm, and the proliferation inhibition (PI) was calculated. The formula is as follows: […]
(§3) where Ntest is the OD value of the test group and Ncontrol is the OD value of the blank control group.
(§4) The test was repeated 5 times independently. The results obtained from the test were calculated as mean±SD, and statistical t-test was performed. P<0.05 was considered as a significant difference, and P<0.01 was considered as an extremely significant difference.

liver cancer cell Hep-G2 = assay: MTT assay, proliferation of liver cancer cell Hep-G2; format: cell-based
Procedure: as §1, §2, §3, §4

[2] = test system: corneal neovascularization in mice; assay: Corneal neovascularization induced by alkali burn in BALB/c mice (MVD, CD31); format: in vivo
Text: 15 healthy male BALB/c mice with weight of 20-25 g were examined under a slit lamp microscope for the anterior segment of both eyes and the appendage to exclude ocular lesions. The eyes were given 0.3% loxacin eye drops 1 day before the preparation of alkali burn model, twice a day. After the mice were anesthetized by intraperitoneal injection of 1.8% Avertin, single-layer filter paper with a diameter of 2 mm was clamped with tweezers, and immersed in a 1 mol/L sodium hydroxide solution to reach a saturated state, and the excess liquid was removed. […]
15 mice were randomly divided into […], with 5 rats in each group. […] On day 14 after alkali burn, the neovascularization of the corneal in each group was photographed and recorded under the slit lamp microscope for photographing anterior segment of the eye. […] The blood was washed with physiological saline, and the eyeballs were fixed in 4% paraformaldehyde for 1.5 h, dehydrated in PBS containing 30% sucrose overnight, embedded in an OCT tissue freezing medium, stored in a refrigerator at −80° C., subjected to cryosection at […] and detected by immunohistochemistry for CD31 expression.
Microvessel density (MVD) is an indicator for evaluating angiogenesis. […] The number of new blood vessels in the entire section was counted under a 10×20 microscope. […]

[3] = test system: diabetic retinopathy rat model; assay: Neovascularization in diabetic retinopathy rat model (STZ); format: in vivo; details: 100 μg dose, intravitreal injection
Procedure: The experimental diabetic rat model was established with streptozotocin STZ. STZ was dissolved in 0.1 mol/L citrate buffer at pH 4.5 to prepare a 2% solution. All experimental Wistar rats were fasted for 12 h before injection, and each rat was intraperitoneally injected with a 2% STZ solution at a dose of 65 mg/kg. After the injection, the rats were fed in single cages, and urine sugar and blood sugar were detected at the 48th hour. When urine sugar was +++ or above, and blood glucose was higher than 16.7 mmol/L, the model establishment requirement is reached. The diabetic retinopathy model was successfully established by detecting blood glucose, urine glucose, and urine volume and retinal VEGF immunohistochemistry.
15 rats were randomly divided into […], which were labeled as a control group, and fusion protein I, protein II, protein III, protein IV and protein V treatment groups. The administration was performed via intravitreal injection once every 5 days for 2 weeks, in which the control group was injected with physiological saline (0.1 mL), and the fusion protein I, protein II, protein III, protein IV, and protein V were all administered with 100 μg (0.1 mL). Observation was performed on week 4, week 8, and week 12.

B1: Protein II: IgG2-Fc linked to antiangiogenesis polypeptide EDSM-Y via a flexible linker; SEQ ID NO: 17 (protein)
chain: ERKCCVECPPCPAPPVAGPSVFLFPPKPKDTLMISRTPEVTCVVVDVSHEDPEVQFNWYVDGVEVHNAKTKPREEQFNSTFRVVSVLTVVHQDWLNGKEYKCKVSNKGLPAPIEKTISKTKGQPREPQVYTLPPSREEMTKNQVSLTCLVKGFYPSDISVEWESNGQPENNYKTTPPMLDSDGSFFLYSKLTVDKSRWQQGNVFSCSVMHEALHNHYTQKSLSLSPGKGGGGSGGGGSGGGGSFQPVLHLVALNSPLSGGMRGIRGADFQCFQQARAVGLAGTFRAGGGGRGD
B1 was tested, and the “A570 nm/A630 nm” value ([1]; dose 1 μg/mL) was 1.1122 ± 0.0374, the “PI (%)” value ([1]; dose 1 μg/mL) was 8.98% and the “A570 nm/A630 nm” value ([1]; dose 2 μg/mL) was 1.0149 ± 0.0253. The “PI (%)” value ([1]; dose 2 μg/mL) was 16.94%, the “A570 nm/A630 nm” value ([1]; dose 4 μg/mL) was 0.8231 ± 0.0396 and the “PI (%)” value ([1]; dose 4 μg/mL) was 32.64%. The “A570 nm/A630 nm” value ([1]; dose 8 μg/mL) was 0.7231 ± 0.0215, the “PI (%)” value ([1]; dose 8 μg/mL) was 40.82% and the “PI (%)” value ([1]; dose 8 μg/mL, listed as protein II) was “about 40%”. For the same molecule, the “A570 nm/A630 nm” value ([1]; dose 16 μg/mL) was 0.5216 ± 0.0192, the “PI (%)” value ([1]; dose 16 μg/mL) was 57.31% and the “A570 nm/A630 nm” value ([1]; dose 32 μg/mL) was 0.4398 ± 0.0347. For the same molecule, the “PI (%)” value ([1]; dose 32 μg/mL) was 64.01%, the “A570 nm/A630 nm” value ([1]; dose 64 μg/mL) was 0.3378 ± 0.0286 and the “PI (%)” value ([1]; dose 64 μg/mL) was 72.35%. The “A570 nm/A630 nm” value ([1]; dose 128 μg/mL) was 0.2203 ± 0.0147, the “PI (%)” value ([1]; dose 128 μg/mL) was 81.97% and the “A570 nm/A630 nm” value ([1]; dose 256 μg/mL) was 0.0987 ± 0.0159. The “PI (%)” value ([1]; dose 256 μg/mL) was 91.92%, the “A570 nm/A630 nm” value (liver cancer cell Hep-G2; dose 1 μg/mL) was 0.6746 ± 0.0372 and the “PI (%)” value (liver cancer cell Hep-G2; dose 1 μg/mL) was 1.49%. For the same molecule, the “A570 nm/A630 nm” value (liver cancer cell Hep-G2; dose 2 μg/mL) was 0.6132 ± 0.0253, the “PI (%)” value (liver cancer cell Hep-G2; dose 2 μg/mL) was 10.46% and the “A570 nm/A630 nm” value (liver cancer cell Hep-G2; dose 4 μg/mL) was 0.5799 ± 0.0396. The “PI (%)” value (liver cancer cell Hep-G2; dose 4 μg/mL) was 15.32%, the “A570 nm/A630 nm” value (liver cancer cell Hep-G2; dose 8 μg/mL) was 0.5499 ± 0.0215 and the “PI (%)” value (liver cancer cell Hep-G2; dose 8 μg/mL) was 19.70%. The “A570 nm/A630 nm” value (liver cancer cell Hep-G2; dose 16 μg/mL) was 0.5190 ± 0.0185, the “PI (%)” value (liver cancer cell Hep-G2; dose 16 μg/mL) was 24.21% and the “A570 nm/A630 nm” value (liver cancer cell Hep-G2; dose 32 μg/mL) was 0.4706 ± 0.0374. The “PI (%)” value (liver cancer cell Hep-G2; dose 32 μg/mL) was 31.28%, the “A570 nm/A630 nm” value (liver cancer cell Hep-G2; dose 64 μg/mL) was 0.4256 ± 0.0268 and the “PI (%)” value (liver cancer cell Hep-G2; dose 64 μg/mL) was 37.85%. The “A570 nm/A630 nm” value (liver cancer cell Hep-G2; dose 128 μg/mL) was 0.3801 ± 0.0174, the “PI (%)” value (liver cancer cell Hep-G2; dose 128 μg/mL) was 44.49% and the “A570 nm/A630 nm” value (liver cancer cell Hep-G2; dose 256 μg/mL) was 0.3156 ± 0.0151. The “PI (%)” value (liver cancer cell Hep-G2; dose 256 μg/mL) was 53.91%, the “inhibitory effect on liver cancer cell Hep-G2” value (liver cancer cell Hep-G2; in words) was “a certain inhibitory effect” and the “number of CD31-positive new blood vessels” value ([2]; compared with the control group) was “significantly reduced”. The MVD ([2]; dose 64 μg, intravitreal injection, day 14 after alkali burn) was 24.64 ± 4.24 and the “therapeutic effect on diabetic retinopathy” value [3] was “a certain therapeutic effect on diabetic retinopathy”.
